Experiment [1] concerns the target binding target for TKPPR on HAEC (human aortic endothelial cells). Briefly: fluorescent beads on confluent HAEC, static 30 min, image analysis.
Experiment [2] has the same target. Briefly: competition of 2% D47 bubble binding to HAEC; VEGF121 100 ng/mL.
For experiment [3] the target is unchanged. The experiment is described as follows: competition of 2% D47 bubble binding to HAEC; VEGF121 200 ng/mL.
Experiment [4] has the same target. Briefly: competition of 2% D47 bubble binding to HAEC; VEGF121 400 ng/mL.
Experiment [5] has the same target. Briefly: competition of 5% composition bubble binding to HAEC.
Experiment [6] has the same target. Briefly: competition of 2% D47 bubble binding to HAEC; VEGF165 100 ng/mL.
Experiment [7] has the same target. Briefly: competition of 2% D47 bubble binding to HAEC; VEGF165 25 ng/mL.
The target is the same in experiment [8]. Briefly: competition of 5% composition bubble binding to HAEC; VEGF165 50 ng/mL.
Experiment [9] shares this target. Briefly: competition of 5% composition bubble binding to HAEC; VEGF165 75 ng/mL.
Experiment [10] has the same target. Briefly: competition of 5% composition bubble binding to HAEC; VEGF165 12.5 ng/mL.
For experiment [11] the target is unchanged. Briefly: competition of 5% composition bubble binding to HAEC; VEGF165 6.25 ng/mL.
For experiment [12] the target is unchanged. Briefly: competition of 5% composition bubble binding to HAEC; VEGF165 25 ng/mL.
For experiment [13] the target is unchanged. Briefly: competition of 5% composition bubble binding to HAEC; KDR/Fc 500 ng/mL.
The target is the same in experiment [14]. The experiment is described as follows: competition of 5% composition bubble binding to HAEC; KDR/Fc 2500 ng/mL.
Experiment [15] shares this target. Briefly: competition of 5% composition bubble binding to HAEC; KDR/Fc 250 ng/mL.
For experiment [16] the target is unchanged. The experiment is described as follows: competition of 5% composition bubble binding to HAEC; KDR/Fc 1000 ng/mL.
The target is the same in experiment [17]. The experiment is described as follows: competition of 5% composition bubble binding to HAEC; KDR/Fc 125 ng/mL.

Sequence of soluble human KDR/Fc chimera (R&D Systems Inc.) (P35968 20-764, change not shown): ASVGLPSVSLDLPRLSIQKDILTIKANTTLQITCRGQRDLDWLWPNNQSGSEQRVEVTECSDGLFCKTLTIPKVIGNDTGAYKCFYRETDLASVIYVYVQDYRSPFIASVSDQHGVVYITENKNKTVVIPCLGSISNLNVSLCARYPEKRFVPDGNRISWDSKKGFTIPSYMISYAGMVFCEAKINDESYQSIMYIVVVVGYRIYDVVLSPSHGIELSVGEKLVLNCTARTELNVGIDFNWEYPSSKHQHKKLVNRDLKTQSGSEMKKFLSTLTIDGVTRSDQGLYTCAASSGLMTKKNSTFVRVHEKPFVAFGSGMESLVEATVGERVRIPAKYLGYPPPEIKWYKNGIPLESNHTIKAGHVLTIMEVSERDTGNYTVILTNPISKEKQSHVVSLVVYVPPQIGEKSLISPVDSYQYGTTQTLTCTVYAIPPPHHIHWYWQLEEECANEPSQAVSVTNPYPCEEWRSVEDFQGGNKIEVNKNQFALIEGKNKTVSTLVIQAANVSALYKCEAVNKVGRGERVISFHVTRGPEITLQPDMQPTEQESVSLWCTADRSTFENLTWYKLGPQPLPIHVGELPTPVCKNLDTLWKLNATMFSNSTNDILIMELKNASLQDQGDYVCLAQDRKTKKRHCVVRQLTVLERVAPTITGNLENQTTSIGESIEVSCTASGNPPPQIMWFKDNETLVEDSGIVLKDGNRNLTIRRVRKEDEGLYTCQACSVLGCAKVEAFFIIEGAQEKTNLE

“BSA-conjugated fluorescent microspheres (from UniProt P02769 25-607)” yielded an Integrated density of bound beads (arbitrary units) in [1] of 1.61.
For the substance “VEGF121 (from UniProt P15692 27-147) (ligand)”, the Bubbles Bound in presence of competitor in [2] was determined as 878 bubbles; in experiment [3], 849 bubbles; in experiment [4], 778 bubbles.
In experiment [5], “VEGF165 (from UniProt P15692 27-191) (ligand)” gave an IC50 of 0.0125 µg/mL. The Bubbles Bound in presence of competitor in experiment [6] worked out at 94 bubbles; in experiment [7], 144 bubbles; in experiment [8], 226 bubbles; in experiment [9], 190 bubbles; in [10] it was 599 bubbles; in experiment [11] it was 1180 bubbles. Moreover, the Bubbles Bound in presence of competitor in [12] came out at 342 bubbles.
As to “soluble human KDR/Fc chimera (R&D Systems Inc.) (from UniProt P35968 20-764) (Fc fusion)”, the Bubbles Bound in presence of competitor turned out to be 342 bubbles in [13]; 84 bubbles in experiment [14]; 786 bubbles in experiment [15]; 75 bubbles in [16]; 1030 bubbles in experiment [17].

These data come from US20060153775A1.
